How the values were obtained:
Conditions in all cases: EMSA: 1 nM probe, 1 mM Tris-HCl pH 7.5, 0.1 mM EDTA, 0.2 mM DTT, 5 mM MgCl2, 10 mM KCl, 20 min 37 C; PhoP with 0.1 M acetyl phosphate; footprinting DNase I …
[1] = target: T1, PhoP (Escherichia coli O157:H7 (EHEC; strain EDL933?)) (UniProt Q8X738); test: EMSA
T1 sequence: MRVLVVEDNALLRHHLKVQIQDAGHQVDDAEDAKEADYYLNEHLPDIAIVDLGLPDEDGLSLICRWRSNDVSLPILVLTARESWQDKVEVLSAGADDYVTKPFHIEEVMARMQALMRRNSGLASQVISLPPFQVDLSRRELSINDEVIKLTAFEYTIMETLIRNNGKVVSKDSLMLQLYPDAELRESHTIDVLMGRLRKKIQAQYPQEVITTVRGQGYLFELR

[2] = tested on: T2, LmiA (Z4267) (Escherichia coli O157:H7 (EHEC; strain EDL933?)), ORF:92023632; test: EMSA
T2 sequence: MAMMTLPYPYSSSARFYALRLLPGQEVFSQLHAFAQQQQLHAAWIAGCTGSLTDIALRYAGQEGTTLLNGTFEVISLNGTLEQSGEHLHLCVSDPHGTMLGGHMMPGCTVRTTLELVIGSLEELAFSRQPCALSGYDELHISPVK

[3] = target: T1, PhoP (Escherichia coli O157:H7 (EHEC; strain EDL933?)); test: competition

Sequence	binding [1]	binding [2]	further results
AATATGGGTAGGGCAATGTCATCATTGGAGTACTCCGAAACTCGGACGTATTACGGATAATATCGACGCTGCATCAGTCATATTCTGATATAAGTCAGGGTTTGTGACGGCACAACGAAAAGATTTTGCTACGCTTATTCGTGATTCTGCAAAGTGGAATAAATTCCACAGGGGCGGGGCTGAGTTGGTGACGAGGGTCAGATAATTGTTTTCTTTGACTGGAC (double strand) [PlmiA-2]	no binding		
AGATTCATCTGCAGGCTCTGAAGTAAGTATACGTGTGAATATTATTGCTTGAAAAAGCGTATTGGATAATATATACAGTATATGTACTTTATGTACATTGCAACTATTTAAATAATATAATAGTTGCCTATGGGATAATTTGGTTATTTATAACCAGGTAAATGTCTAAATTAGACAAAAGGAGAAAGATCAATGGAAGCAGCAAATTTAAGTCCTTCTGGTGCAGTAATG (double strand) [PLEE2/3]		no binding	
CATTAGCCATTGGAAACTCACGTAATCATTAATTATGAATATTCCATTAAATAGTACTGTACAACAGCTTCCTTTCTACTCTATTCTTAGACGATGTAAGTTCACCATATTTTTTCTCATTGTTCAACCACCAGGATGAATAAAATTTAAAAATGTTATCCTCATATAAAATAAAACTTCTCAATGGTGCGATGCG (double strand) [PLEE4]		no binding	
GTCCAGTCAAAGAAAACAATTATCTCAGCCCCGCCCCTGTGGAATTTATTCCACTTTGCAGAATCACGAATAAGCGTAGCAAAATCTTTTCGTTGTGCCGTCACAAACCCTGACTTATATCAGAATATGACTGATGCAGCGTCGATATTATCCGTAATACGTCCGAGTTTCGGAGTACTCCAATGATGACATTGCCCTACCCATATT (double strand) [PlmiA-1]	no binding		
GTCCAGTCAAAGAAAACAATTATCTGACTTACGTCACGTTTTCAGCCCCGCCCCTGTGGAATTTATTCCACTTTGCAGAATCACGAATAAGCGTAGCAAAATCTTTTCGTTGTGCCGTCACAAACCCTGACTTATATCAGAATATGACTGATGCAGCGTCGATATTATCCGTAATACGTCCGAGTTTCGGAGTACTCCAATGATGACATTGCCCTACCCATATT (double strand) [PlmiA unlabeled competitor]			binding [3]: binds
GTCCAGTCAAAGAAAACAATTATCTGACTTACGTCACGTTTTCAGCCCCGCCCCTGTGGAATTTATTCCACTTTGCAGAATCACGAATAAGCGTAGCAAAATCTTTTCGTTGTGCCGTCACAAACCCTGACTTATATCAGAATATGACTGATGCAGCGTCGATATTATCCGTAATACGTCCGAGTTTCGGAGTACTCCAATGATGACATTGCCCTACCCATATT (double strand) [PlmiA]	binds		

— publication PMC7667037
